One series concerns the target T1, AtfA::6His (Aspergillus fumigatus AkuB, UniProt Q4WY05 1-555).
T1 sequence: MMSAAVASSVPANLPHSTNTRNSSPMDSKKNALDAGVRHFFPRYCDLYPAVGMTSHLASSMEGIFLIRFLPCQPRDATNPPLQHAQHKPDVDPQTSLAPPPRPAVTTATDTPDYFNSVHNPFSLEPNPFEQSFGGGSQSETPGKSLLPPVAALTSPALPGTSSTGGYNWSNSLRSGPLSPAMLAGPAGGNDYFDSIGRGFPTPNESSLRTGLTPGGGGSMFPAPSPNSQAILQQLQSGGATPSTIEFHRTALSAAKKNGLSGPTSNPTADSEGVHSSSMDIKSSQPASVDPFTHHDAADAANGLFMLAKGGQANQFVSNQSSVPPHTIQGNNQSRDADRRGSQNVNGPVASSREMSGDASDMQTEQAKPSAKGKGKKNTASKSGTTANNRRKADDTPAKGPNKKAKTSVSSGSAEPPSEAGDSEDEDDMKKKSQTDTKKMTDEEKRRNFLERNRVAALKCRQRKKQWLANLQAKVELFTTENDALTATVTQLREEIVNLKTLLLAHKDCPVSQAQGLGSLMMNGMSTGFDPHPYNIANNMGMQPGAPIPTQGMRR
The series is described as follows: EMSA. (A gel shift assay detects complexes by their altered migration in electrophoresis.)

For another series, the target named is GST::PacC (30-195*) (Aspergillus nidulans? (plasmid …, UniProt Q00202 30-195)). Kind of series: EMSA.
Sequence of GST::PacC (30-195*) (Aspergillus nidulans? (Q00202 30-195): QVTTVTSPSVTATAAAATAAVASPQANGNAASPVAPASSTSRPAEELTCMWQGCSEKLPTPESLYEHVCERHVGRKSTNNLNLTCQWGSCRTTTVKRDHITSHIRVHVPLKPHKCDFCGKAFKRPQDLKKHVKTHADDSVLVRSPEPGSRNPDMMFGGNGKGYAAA

B1: A-142 probe (DprA promoter) (dsDNA)
DNA 1: GGGCTCCCCGGCTTCTTGACGTAACCCCCAGACATGA
DNA 2: GGGTCATGTCTGGGGGTTACGTCAAGAAGCCGGGGAG
As to B1, the binding result in the series with AtfA::6His was “binds”.

B2: PacC probe (DprB promoter, -264) (dsDNA)
DNA 1: GGGTCGATCCAGGTACCGCCAGGGGTTGATATGACAG
DNA 2: GGGCTGTCATATCAACCCCTGGCGGTACCTGGATCGA
Take B2: in the series with GST::PacC (30-195*), the binding result is listed as “binds”.

B3: A-23 probe (DprA promoter) (dsDNA)
DNA 1: GGGCAGTTCAAATACAGAACGTCACAAATCTTACACA
DNA 2: GGGTGTGTAAGATTTGTGACGTTCTGTATTTGAACTG
Consider B3, for which the binding result in the series with AtfA::6His was “binds”.

The values are drawn from publication PMC3103405.
